Test [1] addresses T1, human BiP (Homo sapiens, UniProt P11021).
T1 construct: The human BiP gene except the signal peptide encoding region was obtained from Geneart (Germany); linker […]; made in house; host or cells: HEK 293E cells, transient transfection, PABC674 vector; secreted into the medium
Kind of test: Competition ELISA: BiP binding to misfolded proteins under influence of crossbeta binding compounds. Particulars: for Influence on interaction of BiP with misfolded proteins comprising crossbeta structure (summary in words): BiP binding without compound set to 100%. The method, then:
Binding of chaperones to immobilized (misfolded) protein ligands was determined using an enzyme linked immuno sorbent assay (ELISA) approach. For this purpose 50 μl/well of potential ligands at indicated concentrations or coat buffer only for control and background measurement purposes, were coated overnight at 4° C. or coated for 1 h at room temperature, with motion, in 50 mM NaHCO3 pH 9.6 (coat buffer). In general, ligands were coated at 5 μg/ml, unless stated otherwise. For example, BiP binding peptides 6BB# and oxLDL were coated at 50 μg/ml. Native haemoglobin (Sigma-Aldrich, H7379), albumin, IgIV Gammagard and ovalbumin controls were prepared from lyophilized stocks. The controls were prepared by dissolving lyophilized proteins at 1 mg/ml in PBS upon resuspending by pipetting, followed by a 30 minutes period at the roller device, at room temperature. The protein solutions were centrifuged for 10 minutes at 16,000*g and diluted in coat buffer. After coating the plates were washed at least three times with 50 mM Tris-HCl pH 7.3, 150 mM NaCl, 0.1% v/v Tween20, and blocked with Blocking reagent (Roche Diagnostics, Almere, The Netherlands; 11112589001), for 1 h at room temperature, with motion. Plates were washed three times and incubated in triplicate with indicated chaperone dilution series, at 50 μl/well, for 1 h at room temperature, with constant motion. For HSP90, 5 mM DTT is incorporated in the binding buffer (PBS/0.1% Tween20) to avoid unwanted disulfide bond formation of the HSP90. […] After four wash cycles, secondary antibodies were added to the wells when required, 50 μl/well, for 45′ at room temperature, with motion. RAMPO and SWARPO were used at 3000 times dilution. […] In a second experiment with more immobilized misfolded proteins and controls, the detection of bound HSP90 with the mix of two anti-HSP90 antibodies was achieved by mixing 1:1500 SWARPO with 1:3000 RAMPO. After 5 washes with wash buffer followed by two washes with PBS, binding of antibodies was assessed. Bound anti-FLAG-PO, peroxidase-conjugated rabbit anti-mouse immunoglobulins (RAMPO, P0260, DAKOCytomation, Glostrup, Denmark) or peroxidase-coupled swine anti-rabbit immunoglobulins (SWARPO, P0217, DAKOCytomation) was visualized with tetramethylbenzidine (TMB, #45.01.20,/#45.014.01, Biosource, Nivelles, Belgium). The reaction was stopped after 5 minutes with 1% H2SO4 in H2O. Plates were read at 450 nm. Triplicates were averaged and standard deviations calculated. Background signals obtained with buffer-coated wells were subtracted (binding of primary antibody to empty wells), as well as background signals obtained with ligand-coated wells in which the chaperones were omitted (binding of primary and secondary antibody to coated ligands). Subsequently, sub-optimal concentrations of chaperones for binding to misfolded protein ligands are determined, and these concentrations are used for inhibition studies.
In a subsequent study we analysed whether BiP interacts directly with the crossbeta structure, by performing ELISA binding studies with a fixed sub-optimal concentration of BiP and concentration series of crossbeta binding compounds. The results are depicted in FIGS. 12, 13 and Table 7. Binding of BiP without added crossbeta binding compounds was set to 100%.
(In an ELISA, binding on a coated surface is turned into a signal by an enzyme label.)

Test [2] addresses T1, human BiP. Kind of test: ELISA: binding of BiP in cell culture supernatant to immobilized misfolded proteins. Particulars: undiluted supernatant of 293E cells overexpressing BiP; ligands coated at 5 μg/ml, Aβ 20 μg/ml. The method, then: Binding of BiP to Misfolded Proteins with Crossbeta Structure
Proteins at 5 μg/ml were coated for 1 h at room temperature with agitation, in Microlon high-binding ELISA plates (Greiner) in 50 mM NaHCO3 pH 9.6, except for Aβ that was coated at 20 μg/ml. Buffer was coated as negative control. A twofold dilutions series of cell culture supernatant of HEK 293E cells overexpressing BiP was also coated to the plate for anti-FLAG-tag antibody control purposes. Plates were washed and blocked with ½*Blocking reagent (Roche). Undiluted cell culture supernatant enriched with 0.1% Tween20 was added to the wells with immobilized protein ligands and incubated for 1 h at room temperature with agitation. Medium was discarded and the plate was washed with PBS with 0.1% v/v Tween20. Mouse monoclonal anti-FLAG-tag antibody (Sigma, A8592, anti-FLAG M2PO conjugate) was diluted 1000× in PBS/0.1% Tween20 and added to all wells, including those that are coated with cell culture supernatant. After a 1 h incubation at room temperature with agitation and after washing, wells were overlayed with 3000× diluted RAMPO (DAKOCytomation) in PBS/0.1% Tween20. After 30 minutes the plate was washed and bound peroxidase was visualised with tetramethylbenzidine (TMB, #45.103.20/#45.014.01, Biosource, Nivelles, Belgium). The reaction was stopped after 5 minutes with 10% H2SO4 in H2O. Plates were read at 450 nm.

The mark [3] stands for this setting: fixed sub-optimal BiP concentration, 10 mM ε-amino caproic acid.

T1 sequence (P11021 19-654): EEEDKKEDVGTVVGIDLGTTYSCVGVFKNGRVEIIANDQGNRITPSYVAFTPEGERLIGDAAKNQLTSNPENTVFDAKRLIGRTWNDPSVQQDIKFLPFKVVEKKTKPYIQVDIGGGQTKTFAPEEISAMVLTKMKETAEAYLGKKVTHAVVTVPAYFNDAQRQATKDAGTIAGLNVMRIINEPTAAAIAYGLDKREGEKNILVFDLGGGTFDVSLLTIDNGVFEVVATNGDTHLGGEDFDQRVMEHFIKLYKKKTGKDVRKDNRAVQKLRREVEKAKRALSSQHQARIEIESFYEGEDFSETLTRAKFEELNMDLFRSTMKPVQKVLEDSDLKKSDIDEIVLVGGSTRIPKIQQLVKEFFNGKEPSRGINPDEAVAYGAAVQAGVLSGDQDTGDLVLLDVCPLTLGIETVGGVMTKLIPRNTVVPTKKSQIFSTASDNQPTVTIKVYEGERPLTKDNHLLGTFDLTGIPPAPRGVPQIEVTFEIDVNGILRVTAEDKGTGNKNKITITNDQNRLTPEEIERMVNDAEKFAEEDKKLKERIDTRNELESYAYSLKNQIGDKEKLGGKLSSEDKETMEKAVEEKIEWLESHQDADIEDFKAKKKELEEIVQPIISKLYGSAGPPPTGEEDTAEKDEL

Take `Nc1c(/N=N/c2ccc(-c3ccc(/N=N/c4cc(S(=O)(=O)O)c5ccccc5c4N)cc3)cc2)cc(S(=O)(=O)O)c2ccccc12` [Congo red]: the “Influence on interaction of BiP with misfolded proteins comprising crossbeta structure (summary in words)” value on human BiP [1] is on record as “general inhibitors”. Same read-out and setting: the value for `Cc1ccc2c(c1)sc(-c1ccc(N(C)C)cc1)[n+]2C.[Cl-]` [ThT, Thioflavin T] was “can either potentiate BiP binding, or inhibit”. Turning to BSA-AGE, the “Binding of BiP to immobilized protein (ELISA)” value (shortened to “Binding of BiP”) with human BiP [2] is reported as “binds”. GSNKGAIIGLM [6BB6, Human Aβ (25-35)]: in the test with human BiP [1] (setting [3]), the “Influence of K2P tPA on interaction of BiP with misfolded protein” value is “−” and the “Influence of tPA on interaction of BiP with misfolded protein” value is on record as “↓ (a ↓ sign refers to inhibited abolished binding of BiP)”. Moreover, the “Influence of IgIV on interaction of BiP with misfolded protein” value with human BiP [1] (fixed sub-optimal BiP concentration, IgIV Octagam series) is listed as “↓ (a ↓ sign refers to inhibited abolished binding of BiP)”. Further, the “Influence of Congo red on interaction of BiP with misfolded protein” value with human BiP [1] (fixed sub-optimal BiP concentration, concentration series of Congo red) was “↓ (a ↓ sign refers to inhibited abolished binding of BiP)”. In the test with human BiP [1] (fixed sub-optimal BiP concentration, concentration series of ThS), the “Influence of ThS on interaction of BiP with misfolded protein” value was “−”. With “HbAGE: human haemoglobin glycated with glucose-6-phosphate for 75 weeks”, the “Binding of BiP” value with human BiP [2] is reported as “binds”.

On to “native BSA: non-modified bovine serum albumin control”, for which, in the test with human BiP [2], the “Binding of BiP” value is listed as “not”.

The values are drawn from patent US20100015126A1, “Methods of Binding of Cross-Beta Structures By Chaperones” (priority 2006, published 2010).
